For the data set, the system named is MS2 coat protein. Description: apparent KD of MS2 coat protein; designed switch direction (-1 OFF switch, 1 ON switch): -1; higher = weaker reporter binding. In outline:
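Designed RNA switches sharing common flanks were transcribed on Illumina chips by stalled E. coli RNA polymerase. They were titrated with SNAP-549-labelled MS2 coat protein, from 0.7 or 1.5 nM doubling to 3 µM, in Tris-HCl pH 7.5 buffer with KCl, MgCl2, BSA, DTT, tRNA and Tween-20. Titrations ran without input, with 200 uM small-molecule ligand, or with an oligonucleotide input. The apparent KD of each design is the median over its clusters, after curve-fitting of normalised cluster fluorescence.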

Setting [1] is: input ligand: microRNA oligo, concentration not stated.
Setting [2] is: Eterna round: R95, input ligand: microRNA oligo, concentration not stated.
Setting [3] is: Eterna round: R95, input ligand: FMN 200 uM.
Setting [4] is: Eterna round: R95, input ligand: none.

On to “GUCAUGUUAGGAUAUGAGCGGCGACUUAGAAUGUUUGCUACUUAGAAGGAACAUGAGGAUCACCCAUGUUCUAU [EX4 C.14] (Eterna round: R97, puzzle: Exclusion 4)”, for which the “apparent KD of MS2 coat protein” value runs as follows: (input ligand: FMN 200 uM) 20.2 nM; (input ligand: none) 17.2 nM.

For the sequence “GUCCAGAUAGGAUAUUGUAAGGGCAACAUGAGGAUCACCCAUGUCGCAAAGAUCGCCCUUCGAGAAGGGUCCAAUU [Eternabot (L1) Solution 39] (Eterna round: R97, puzzle: Exclusion 5)”, the “apparent KD of MS2 coat protein” value runs as follows: (input ligand: FMN 200 uM) 15.7 nM; (input ligand: none) 17.6 nM.

Regarding “GUCCUACAUGAGGAUCACCCAUGUGAGGAUAUGCGAUUAGCUGCUAGGUAGUUAGUAUGUAGAAGGCGCGUGAA [EX1 #78] (Eterna round: R97, puzzle: Exclusion 1)”, the “apparent KD of MS2 coat protein” value reads like this: (input ligand: FMN 200 uM) 15.6 nM; (input ligand: none) 14.4 nM.

For the sequence “GUCCUGGAAUAUCAGAAGCACAUGAGGAUCACCCAUGUCAUGGGUAGAUCAAUAAAUAAAGAUACUGCUCGUCUUAU [Cac sensor turnoff var1 sub4] (Eterna round: R97, puzzle: Sensor, turn-off variant 1)”, the “apparent KD of MS2 coat protein” value runs as follows: (input ligand: FMN 200 uM) 837 nM; (input ligand: none) 228 nM.

Consider “GUCCUGGAUUAUCACAAGCACAUGAGGAUCACCCAUGUCAUGGGUGGAUCCCUAAAUGGGUAUUCUGCUCGUCUUAU [Cac Sensor turn off v1 sub11] (Eterna round: R97, puzzle: Sensor, turn-off variant 1)”, for which, for the setting “input ligand: FMN 200 uM”, the “apparent KD of MS2 coat protein” value was 417 nM.

Turning to “GUCCUUAACGAGGAUAUCGGGCGGGUUUUUGUUUGAGAAGGCGUGACAUGAGGAUCACCCAUGUGGCGCGUGGG [-24.6, -21.7 kcal, A 19%] (Eterna round: R97, puzzle: Exclusion 6)”, the “apparent KD of MS2 coat protein” value (input ligand: FMN 200 uM) is 36.7 nM and the “apparent KD of MS2 coat protein” value (input ligand: none) was 29.7 nM.

Take “GUCGAGUGAGGAUAUGGUGAGUAGUGCCUGAGCGCUGCUCACCAGAAGGCACAUGAGGAUCACCCAUGUAUAAC [Mat - Exclusion 4 - Mod of JL - D14] (Eterna round: R96, puzzle: Exclusion 4)”: the “apparent KD of MS2 coat protein” value by setting is: (input ligand: FMN 200 uM) 58.1 nM; under setting [1], 19.7 nM; (input ligand: none) 26.1 nM.

Take “GUCGAGUGAGGAUAUGGUGAGUAGUGCCUGAGCGCUGCUCACCAGAAGGCACAUGAGGAUCACCCAUGUAUAAC [Mat - Exclusion 4 - Mod of JL - D14] (puzzle: Exclusion 4)”: the “apparent KD of MS2 coat protein” value under setting [2] worked out at 22.3 nM.

For the sequence “GUCGAUGUCAAAGGAUAUCAGCACGAUUAGUGCUGAGAAGGUUGAACAUGAGGAUCACCCAUGUAGAUCAUUAACGACUUAAUU [ENG1/10-A2] (Eterna round: R96, puzzle: Exclusion NG 1)”, the “apparent KD of MS2 coat protein” value (input ligand: FMN 200 uM) was 28.4 nM, the “apparent KD of MS2 coat protein” value under setting [1] was 14.1 nM and the “apparent KD of MS2 coat protein” value (input ligand: none) came out at 18 nM.

On to “GUCGAUGUCAAAGGAUAUCAGCACGUGUAGUGCUGAGAAGGUUGAACAUGAGGAUCACCCAUGUAGAUCAUUAACGACUUAAUU [ENG1/10-A3] (Eterna round: R96, puzzle: Exclusion NG 1)”, for which the “apparent KD of MS2 coat protein” value is, setting by setting: (input ligand: FMN 200 uM) 56.1 nM; under setting [1], 20.3 nM; (input ligand: none) 22.9 nM.

Consider “GUCGUGCGGCUUUGCUGUACGAGUACAUGAGGAUCACCCAUGUAGGAUAUGGCUCGCUUUGCGUGCCAGAAGGGCGUGCGUUGG [Excl-NG3-LRO11] (Eterna round: R96, puzzle: Exclusion NG 3)”, for which the “apparent KD of MS2 coat protein” value came to 43.2 nM (input ligand: FMN 200 uM), 25.6 nM under setting [1] and 33.6 nM (input ligand: none).

As for “GUCGUGCGGCUUUGCUGUACGAGUACAUGAGGAUCACCCAUGUAGGAUAUGGUUCGCUUUGCGUGCCAGAAGGGCGUGCGUUGU [Excl-NG3-LRO13] (Eterna round: R96, puzzle: Exclusion NG 3)”, the “apparent KD of MS2 coat protein” value under setting [1] came out at 18.9 nM.

As to “GUCUAGAGAGGAUAUAUUUACACUGUACGUCGGAUGAUUGCACUUGAGGAUCACCCAAGUAGAAGGCUCGAGGG [EX2 #33] (Eterna round: R97, puzzle: Exclusion 2)”, the “apparent KD of MS2 coat protein” value runs as follows: (input ligand: FMN 200 uM) 130 nM; (input ligand: none) 112 nM.

As to “GUCUCACAUGAGGAUCACCCAUGUGAGGAUAUGGUUUCGCUGGCCGUAGCCAGUGGAACCAGAAGGCGCGUGAU [Mat - Exclusion 1 - JL Mod - D18] (Eterna round: R97, puzzle: Exclusion 1)”, the “apparent KD of MS2 coat protein” value (input ligand: FMN 200 uM) was 71.1 nM and the “apparent KD of MS2 coat protein” value (input ligand: none) was found to be 65 nM.

As for “GUCUGCACGCUGCGGUCCUACAUGAGGAUCACCCAUGUGGUCUGGUGGCGUGGGUCACCGGACUUGGCUCGUCUUGC [salish99_S_TOV1_R5_052] (Eterna round: R97, puzzle: Sensor, turn-off variant 1)”, the “apparent KD of MS2 coat protein” value stood at 19.1 nM (input ligand: FMN 200 uM) and 18.9 nM (input ligand: none).

With “GUCUUACAUGAGGAUCACCCAUGUGAGGAUAUGGUUUCGCUGGCCGUAGCCAGUGGAACCAGAAGGCGCGUGAU [Mat - Exclusion 1 - JL Mod - D20] (Eterna round: R97, puzzle: Exclusion 1)”, the “apparent KD of MS2 coat protein” value runs as follows: (input ligand: FMN 200 uM) 73.1 nM; (input ligand: none) 72.8 nM.

Take “GUGAAACAUGAGGAUCACCCAUGUGAGGAUAUGUUUAAGUAAUGAUGAAAGUAUAUAUACAGAAGGCACAAUGG [Mat - Mod of JL D72] (puzzle: Exclusion 1)”: the “apparent KD of MS2 coat protein” value is, setting by setting: under setting [3], 142 nM; under setting [2], 71.5 nM; under setting [4], 64.4 nM.

For the sequence “GUGAAACAUGAGGAUCACCCAUGUGAGGAUAUGUUUUAGUACUGCUGACAGUACAUCUAUAGAAGGCACAAAGG [Mat - Mod of JL D69] (puzzle: Exclusion 1)”, the “apparent KD of MS2 coat protein” value under setting [2] turned out to be 25.4 nM.

“GUGAAGGUAGGAUAUACGAUAAUAUAGGGUAGAUAUAUAACACAUGAGGAUCACCCAUGUAGAAGGACCAAUUG [Mat - Exclusion 2 - Mod of my Tesla design - D59] (puzzle: Exclusion 2)”: under setting [2], the “apparent KD of MS2 coat protein” value is 29.1 nM.

On to “GUGAAGUAAGGAUAUACAUGAGGAUCACCCAUGUAAGGGAAGGUGAUGGGAGUAGAUAGUAGAAGGUACGAGGA [JR_Exclu3_Sub066] (puzzle: Exclusion 3)”, for which the “apparent KD of MS2 coat protein” value under setting [2] amounted to 103 nM.

As for “GUGAAGUGAGGAUAUACGAGAGAGGCUGAACCGGACGAGAAGUAGAAGGCACAUGAGGAUCACCCAUGUACGGG [JR_Exclu4_Sub023] (puzzle: Exclusion 4)”, the “apparent KD of MS2 coat protein” value under setting [2] was found to be 164 nM.

As to “GUGAUAUAGUUAGUGGCCUACAUGAGGAUCACCCAUGUGAGGGAAAUGUUGAGGCGAAAGUUUUUUGCUCGUCUUUA [JR_SV3TOV1_Sub038] (puzzle: Sensor v3, turn-off variant 1)”, the “apparent KD of MS2 coat protein” value under setting [3] was determined as 18 nM, the “apparent KD of MS2 coat protein” value under setting [2] amounted to 38.6 nM and the “apparent KD of MS2 coat protein” value under setting [4] stood at 19.1 nM.

Turning to “GUGAUCUAUCAUGGGAUAAACAUGAGGAUCACCCAUGUACACAAGUUUUUUGCUCGUCUUAUAAUAAGAUAGAUCAC [Antenna 3 - Jieux - Sensor, turn-off variant 1] (Eterna round: R97, puzzle: Sensor, turn-off variant 1)”, the “apparent KD of MS2 coat protein” value reads like this: (input ligand: FMN 200 uM) 21 nM; (input ligand: none) 20.9 nM.

Turning to “GUGAUCUAUCAUGUAAUGAACAUGAGGAUCACCCAUGUAGACAAGUUUUUUGCUCGUCUCAUAAUAAGAUAGAUCAC [Antenna 17 - Jieux - Sensor, turn-off variant 1] (Eterna round: R97, puzzle: Sensor, turn-off variant 1)”, the “apparent KD of MS2 coat protein” value runs as follows: (input ligand: FMN 200 uM) 17.5 nM; (input ligand: none) 19.3 nM.

With “GUGCAACAUGAGGAUCACCCAUGUCAGGAUAUGCGAAUUUCAUCAAAAGAUGAAAUUUGCAGAAGGGACAGCAC [Omei Ex1 A16] (Eterna round: R97, puzzle: Exclusion 1)”, the “apparent KD of MS2 coat protein” value was determined as 32 nM (input ligand: FMN 200 uM) and 24.4 nM (input ligand: none).

Consider “GUGCCACAUGAGGAUCACCCAUGUGAGGAUAUGGCCUGUUUGGCGUGUGCUGGCUCUGUCAGAAGGCGCGUGGG [salish99_ex1_r4_037] (Eterna round: R97, puzzle: Exclusion 1)”, for which the “apparent KD of MS2 coat protein” value runs as follows: (input ligand: FMN 200 uM) 39.1 nM; (input ligand: none) 26.8 nM.

Take “GUGCCGCGAGGAUAUACAGACGGGUCCAAAACGUGUCUCGGACUUGAGGAUCACCCAAGUAGAAGGCUUUUCAG [salish99_ex2_r4_621] (Eterna round: R97, puzzle: Exclusion 2)”: the “apparent KD of MS2 coat protein” value is, setting by setting: (input ligand: FMN 200 uM) 28.3 nM; (input ligand: none) 24.3 nM.

Regarding “GUGCCGCGAGGAUAUACAGACGGGUCCAAUACGUGUCUCGGACUUGAGGAUCACCCAAGUAGAAGGCUUUUCAG [LRO-Excl2-11-mod _r4_621 by salish99] (Eterna round: R97, puzzle: Exclusion 2)”, the “apparent KD of MS2 coat protein” value is, setting by setting: (input ligand: FMN 200 uM) 27.7 nM; (input ligand: none) 27.7 nM.

In the case of “GUGCUAUAGGAAGGAUAUACUUCAUUGUUUAAACAUGAGGAUCACCCAUGUAACCUUAUGUAUGUGUAGAAGGUCCAUAGCUUA (Eterna round: R96, puzzle: Exclusion NG 2)”, the “apparent KD of MS2 coat protein” value was found to be 56.9 nM (input ligand: FMN 200 uM), 25.1 nM under setting [1] and 30.2 nM (input ligand: none).

“GUGCUGGUAGGAUAUACAUGAGGAUCACCCAUGUGGCGUGACUCCUAUGGCAGCGCCGGUAGAAGGAUUAGAAG [Eternabot (L1) Solution 60] (Eterna round: R97, puzzle: Exclusion 3)”: the “apparent KD of MS2 coat protein” value amounted to 188 nM (input ligand: FMN 200 uM) and 261 nM (input ligand: none).

For the sequence “GUGGAGUAAGGAUAUACAUGAGGAUCACCCAUGUGAGGGUAUGUGAUGGGAGUAGGUUGUAGAAGGUACGAGGA [JR_Exclu3_Sub068] (puzzle: Exclusion 3)”, the “apparent KD of MS2 coat protein” value under setting [2] stood at 160 nM.

Regarding “GUGGGCUUUUAGGUUCUUAACAUGAGGAUCACCCAUGUGCUUGUCUUGCUGGCUGGCGGGUCGUCGGUCGGGCUUGU (Eterna round: R97, puzzle: Sensor, turn-off variant 1)”, the “apparent KD of MS2 coat protein” value runs as follows: (input ligand: FMN 200 uM) 489 nM; (input ligand: none) 584 nM.

For the origin of these results see the supplement of paper PMC9170038.
